Substrate: O=[N+]([O-])c1ccc(OP(=O)(O)O)cc1
Assay: purified protein
Settings: 2 mM Mn2+, 50 mM Tris-HCl pH 8.0, 37 °C

B1: StpA (Enterococcus faecium DO) (protein)
chain: MQIEYQSDVGRRRNTNQDYASVFTSRSGLKLAVLADGMGGHRAGDIASQMAVTNLGEAWEKQEAVDDEKIAQWFIQSIQEENMLIYQRGQEQPEYNGMGTTIVAAALSDDWFTIANVGDSRAYLIREDKIMQLTEDHSLVNELVKSGEISEEMAVNHPRKNILTRSVGMPGTVEVDVSTHLWQLKDRLLLCSDGLTNMLSEEEIGTIINQEGPLSHKVTELIDRANEAGGADNITVLLIEYKEDSV
For B1, the Km was 0.66 ± 0.09 mM, the kcat was 1,200 ± 100 min^-1 and the kcat/Km was 30000 ± 4830 M⁻¹ s⁻¹.
